Substrate in the data set: CC(C)(CO)[C@@H](O)C(=O)NCCC(=O)O
The experiment in a line: purified protein, by the assay type. Conditions: pH 7.5, 37.0 °C.

Among the data in paper PMC2929395 are Km values, retold here.

B1: PanK3(S195V) (Homo sapiens; S195V) (protein)
chain: MKIKDAKKPSFPWFGMDIGGTLVKLSYFEPIDITAEEEQEEVESLKSIRKYLTSNVAYGSTGIRDVHLELKDLTLFGRRGNLHFIRFPTQDLPTFIQMGRDKNFSTLQTVLCATGGGAYKFEKDFRTIGNLHLHKLDELDCLVKGLLYIDSVSFNGQAECYYFANASEPERCQKMPFNLDDPYPLLVVNIGSGVVILAVHSKDNYKRVTGTSLGGGTFLGLCSLLTGCESFEEALEMASKGDSTQADKLVRDIYGGDYERFGLPGWAVASSFGNMIYKEKRESVSKEDLARATLVTITNNIGSVARMCAVNEKINRVVFVGNFLRVNTLSMKLLAYALDYWSKGQLKALFLEHEGYFGAVGALLGLPNFS
Regarding B1, the Km (other: substrate) is 151 ± 16 µM.

B2: PanK3 (Homo sapiens) (protein)
chain: MKIKDAKKPSFPWFGMDIGGTLVKLSYFEPIDITAEEEQEEVESLKSIRKYLTSNVAYGSTGIRDVHLELKDLTLFGRRGNLHFIRFPTQDLPTFIQMGRDKNFSTLQTVLCATGGGAYKFEKDFRTIGNLHLHKLDELDCLVKGLLYIDSVSFNGQAECYYFANASEPERCQKMPFNLDDPYPLLVVNIGSGVSILAVHSKDNYKRVTGTSLGGGTFLGLCSLLTGCESFEEALEMASKGDSTQADKLVRDIYGGDYERFGLPGWAVASSFGNMIYKEKRESVSKEDLARATLVTITNNIGSVARMCAVNEKINRVVFVGNFLRVNTLSMKLLAYALDYWSKGQLKALFLEHEGYFGAVGALLGLPNFS
With B2, the Km (other: wild-type PanK3, substrate) is reported as 14 ± 0.1 µM.
